# Measurements reported in PMC3792637 (Chembiochem, 2013).
# What was measured:
# [1] = biological target: T1, S. aureus NAL (N-acetylneuraminic acid lyase) (Staphylococcus aureus, UniProt Q2G160); experiment: X-ray crystal structure, soak; assay type: binding; settings: covalent Schiff base with Lys165; 100 mM sodium pyruvate soak
# T1 sequence (Q2G160 1-293): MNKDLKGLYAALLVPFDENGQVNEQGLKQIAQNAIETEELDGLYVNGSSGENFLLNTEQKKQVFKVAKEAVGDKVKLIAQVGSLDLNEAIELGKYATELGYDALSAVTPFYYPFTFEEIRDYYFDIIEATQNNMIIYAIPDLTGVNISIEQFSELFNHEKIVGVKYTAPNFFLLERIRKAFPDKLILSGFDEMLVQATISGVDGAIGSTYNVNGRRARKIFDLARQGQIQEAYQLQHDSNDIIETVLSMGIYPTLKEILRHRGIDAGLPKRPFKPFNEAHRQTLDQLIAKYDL
# [2] = biological target: K165-γ-thialysine S. aureus N-acetylneuraminic acid lyase (Staphylococcus aureus NCTC 8325) (UniProt Q2G160); experiment: crystal structure
# [3] = biological target: K165C variant of S. aureus N-acetylneuraminic acid lyase (Staphylococcus aureus NCTC 8325) (UniProt Q2G160); experiment: crystal structure
compound,measurement,setting,value
CC(=O)C(=O)O [pyruvate],"X-ray crystal structure, soak",[1],the structure of the enzyme–pyruvate complex (PDB ID: 4AH7) was also determined
K165-γ-thialysine S. aureus N-acetylneuraminic acid lyase (from UniProt Q2G160 1-293) (enzyme),stoichiometry N,[2],4
K165C variant of S. aureus N-acetylneuraminic acid lyase (from UniProt Q2G160 2-293) (enzyme),stoichiometry N,[3],4
